The text below walks through data of patent publication US20220064316A1 (published 2022).

The chains are these.
B1: BCMA-15 scFv (139114) (scFv)
scFv: EVQLVESGGGLVQPGGSLRLSCAVSGFALSNHGMSWVRRAPGKGLEWVSGIVYSGSTYYAASVKGRFTISRDNSRNTLYLQMNSLRPEDTAIYYCSAHGGESDVWGQGTTVTVSSASGGGGSGGRASGGGGSEIVLTQSPGTLSLSPGERATLSCRASQSIGSSSLAWYQQKPGQAPRLLMYGASSRASGIPDRFSGSGSGTDFTLTISRLEPEDFAVYYCQQYAGSPPFTFGQGTKVEIK
notes: also called B15; BMCA-15
B2: BCMA-1 CAR (139100) (other)
chain: QVQLVQSGAEVRKTGASVKVSCKASGYIFDNFGINWVRQAPGQGLEWMGWINPKNNNTNYAQKFQGRVTITADESTNTAYMEVSSLRSEDTAVYYCARGPYYYQSYMDVWGQGTMVTVSSASGGGGSGGRASGGGGSDIVMTQTPLSLPVTPGEPASISCRSSQSLLHSNGYNYLNWYLQKPGQSPQLLIYLGSKRASGVPDRFSGSGSGTDFTLHITRVGAEDVGVYYCMQALQTPYTFGQGTKLEIKTTTPAPRPPTPAPTIASQPLSLRPEACRPAAGGAVHTRGLDFACDIYIWAPLAGTCGVLLLSLVITLYCKRGRKKLLYIFKQPFMRPVQTTQEEDGCSCRFPEEEEGGCELRVKFSRSADAPAYKQGQNQLYNELNLGRREEYDVLDKRRGRDPEMGGKPRRKNPQEGLYNELQKDKMAEAYSEIGMKGERRRGKGHDGLYQGLSTATKDTYDALHMQALPPR
notes: also called ER95-03VA
B3: BCMA-Fc antigen (R&D Systems) (Fc fusion)
chain: MLQMAGQCSQNEYFDSLLHACIPCQLRCSSNTPPLTCQRYCNASVTNSVKGTNA
notes: also called BCMA fc fusion protein (R&D Systems, cat #193-BC-050); recombinant BCMA-Fc; not shown: Fc portion of the bought fusion protein
B4: BCMA-4 scFv (139103) (scFv)
scFv: QVQLVESGGGLVQPGRSLRLSCAASGFTFSNYAMSWVRQAPGKGLGWVSGISRSGENTYYADSVKGRFTISRDNSKNTLYLQMNSLRDEDTAVYYCARSPAHYYGGMDVWGQGTTVTVSSASGGGGSGGRASGGGGSDIVLTQSPGTLSLSPGERATLSCRASQSISSSFLAWYQQKPGQAPRLLIYGASRRATGIPDRFSGSGSGTDFTLTISRLEPEDSAVYYCQQYHSSPSWTFGQGTKLEIK
notes: also called B4
B5: BCMA-13 scFv (139112) (scFv)
scFv: QVQLVESGGGLVQPGGSLRLSCAVSGFALSNHGMSWVRRAPGKGLEWVSGIVYSGSTYYAASVKGRFTISRDNSRNTLYLQMNSLRPEDTAIYYCSAHGGESDVWGQGTTVTVSSASGGGGSGGRASGGGGSDIRLTQSPSPLSASVGDRVTITCQASEDINKFLNWYHQTPGKAPKLLIYDASTLQTGVPSRFSGSGSGTDFTLTINSLQPEDIGTYYCQQYESLPLTFGGGTKVEIK
notes: also called B13

In test [1] the target is T1, BCMA (recombinant, form not given) (UniProt Q02223 1-54, limits assumed).
T1 construct: one entry is used for both; also called Bio-BCMA; BCMA substrate
T1 sequence (looked up): B3 chain
Briefly: affinity assay (RU biosensor), 1:1 Binding fit.

Test [2] deals with B3. Briefly: flow cytometry; BCMA-Fc staining of CAR-transduced JNL cells. How it is done: Jurkat-NFAT-luciferase (JNL) cells transduced with BCMA CAR constructs were evaluated for activation in response to BCMA-expressing target cell lines. Small-scale viral supernatant samples were generated in HEK293T cells for transduction of JNL cells. On Day 3 following transduction, BCMA CAR-transduced JNL cells were incubated with target cells at an effector-to-target (E:T) ratio of 6:1. Target cell lines were: K562-BCMA (engineered to stably express BCMA), K562 (parental line), and BCMA positive multiple myeloma cell lines, NCI-H929 and RPMI 8226. JNL activation was measured using Bright-Glo substrate (Promega) on Day 4. CAR expression on transduced JNL was assessed on Day 7 with BCMA-Fc antigen and Biotin-Protein L reagent (Table 21).

Test [3] addresses T2, human BCMA (B-cell maturation antigen) on cells (human, UniProt Q02223 1-184).
T2 sequence (looked up): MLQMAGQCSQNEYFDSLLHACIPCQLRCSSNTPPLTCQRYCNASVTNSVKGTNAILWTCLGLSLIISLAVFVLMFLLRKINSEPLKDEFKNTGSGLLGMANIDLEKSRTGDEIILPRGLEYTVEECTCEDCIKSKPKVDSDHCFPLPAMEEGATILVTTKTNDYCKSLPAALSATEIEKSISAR
Kind of test: cell-based or functional assay.

Test [4] concerns the target T3, BCMA-10 CAR (139109).
T3 construct: also called B10; EG63-98LB
Briefly: flow cytometry; BCMA-Fc antigen staining of CAR-transduced SupT1 cells. Background: In flow cytometry, cells or beads pass a laser one at a time.

What is called Kd is the constant that tells how readily two partners part at equilibrium. Broadly, the koff is the rate constant with which the complex falls apart. Broadly, the kon is the second-order rate constant of association. In the case of B1, in test [1], the Kd was 9.3 nM, the koff was determined as 0.00187 s⁻¹ and the kon was found to be 201000 M⁻¹ s⁻¹.

As for B2, the “% CAR+ (BCMA-Fc detection)” value in test [2] was 72.1%. In addition, in test [3], the “JNL binding assay, ratio to K562; K562-BCMA” value came to 4.6 ratio; the “JNL binding assay, ratio to K562; NCI-H929” value came out at 4.55 ratio; the “JNL binding assay, ratio to K562; RPMI 8226” value came to 5.06 ratio; the “Proliferation CD3, ratio to no target; K562-BCMA” value turned out to be 1.59 ratio. In test [3], the “Proliferation CD3, ratio to no target; KMS11-luc” value came out at 1.38 ratio; the “Proliferation CD3, ratio to no target; NCI-H929” value turned out to be 4.97 ratio; the “Proliferation CD3, ratio to no target; RPMI 8226” value was found to be 2.96 ratio; the “Proliferation CD4, ratio to no target; K562-BCMA” value worked out at 1.57 ratio. Also, in test [3], the “Proliferation CD4, ratio to no target; KMS11-luc” value amounted to 1.24 ratio; the “Proliferation CD4, ratio to no target; NCI-H929” value is 5.57 ratio; the “Proliferation CD4, ratio to no target; RPMI 8226” value came out at 2.43 ratio; the “Proliferation CD8, ratio to no target; K562-BCMA” value amounted to 1.61 ratio. In test [3], the “Proliferation CD8, ratio to no target; KMS11-luc” value is 1.56 ratio; the “Proliferation CD8, ratio to no target; NCI-H929” value came out at 4.14 ratio; the “Proliferation CD8, ratio to no target; RPMI 8226” value amounted to 3.58 ratio.

For the molecule B3, the binding result in test [4] was “binds”.

As for B4, in test [1], the Kd was 1 nM, the koff is 0.0006 s⁻¹ and the kon came out at 617000 M⁻¹ s⁻¹.

With B5, in test [1], the Kd came out at 24.5 nM, the koff worked out at 0.00161 s⁻¹ and the kon was 65600 M⁻¹ s⁻¹.
